Reference: patent US20200079862A1 (AGENUS, published 2020)

Assays:
[1] = target: T1, recombinant human GITR-Fc (R&D, 689-GR) (human, UniProt Q9Y5U5 26-161); assay: Luminex suspension array, protein coupled to microspheres, PE MFI
T1 construct: Bought construct; not shown: Fc part
T1 sequence (looked up): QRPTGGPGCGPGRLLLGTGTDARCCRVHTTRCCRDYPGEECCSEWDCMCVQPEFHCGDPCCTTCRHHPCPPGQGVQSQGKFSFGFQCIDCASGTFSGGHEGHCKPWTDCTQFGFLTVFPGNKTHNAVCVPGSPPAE
Description: (§1) A number of TNFR family members were chemically coupled to Luminex® microspheres using standard NETS-ester chemistry. […] Briefly, 25 μl of each dilution was incubated in the dark (20° C., 650 rpm) with 1500 Luminex® microspheres in 5 μl assay buffer for 1 hour in 96 half-well filter plates (Millipore, MABVN1250). Luminex® microspheres were coupled with recombinant human OX40-His (SinoBiological, 10481-H08H), recombinant human OX40-Fc (R&D systems, 3388-OX), recombinant human LTBR-Fc (Acros Biosystems, LTR-H5251), recombinant human GITR-His (SinoBiological, 13643-H08H), recombinant human GITR-Fc (R&D, 689-GR), recombinant human DR6-Fc (SinoBiological, 10175-H02H), recombinant human DR3-Fc (R&D, 943-D3), recombinant human TWEAK R-Fc (SinoBiological, 10431-H01H), recombinant human CD137-His (SinoBiological, 10041-H08H), recombinant human BAFFR-Fc (R&D, 1162-BR) or anti-human IgG (F(ab)₂-specific, JIR, 105-006-097) via amine coupling with COOH bead surface. Standard curves were generated using duplicates of 25 μl of a human IgG1 standard (Sigma, I5154) with 1:3 dilution series (0.08-540 ng/ml). Detection was carried out using 60 μl of goat anti-human IgG F(ab)₂ labeled with R-PE (2.5 μg/ml; JIR 109-116-098, AbDSerotec Rapid RPE Antibody Conjugation Kit, LNK022RPE) and another hour of incubation time (20° C., 650 rpm). Plates were analyzed using a Luminex® 200 system (Millipore). A total of 100 beads were counted per well in a 48 μl sample volume. PE MFI values were used to determine specific or non-specific binding to the recombinant proteins mentioned above.

[2] = target: T2, recombinant human TWEAK R-Fc (SinoBiological, 10431-H01H) (human, UniProt Q9NP84 28-80); assay: as above
T2 construct: Bought construct; not shown: Fc part
Description: as §1

[3] = target: T3, recombinant human CD137-His (SinoBiological, 10041-H08H) (human, UniProt Q07011 24-186); assay: as above
T3 construct: Bought construct; not shown: His tag
Description: as §1

[4] = target: T4, recombinant human DR3-Fc (R&D, 943-D3) (human, UniProt Q93038 25-201, limits assumed); assay: as above
T4 construct: Bought construct; not shown: Fc part
T4 sequence (looked up): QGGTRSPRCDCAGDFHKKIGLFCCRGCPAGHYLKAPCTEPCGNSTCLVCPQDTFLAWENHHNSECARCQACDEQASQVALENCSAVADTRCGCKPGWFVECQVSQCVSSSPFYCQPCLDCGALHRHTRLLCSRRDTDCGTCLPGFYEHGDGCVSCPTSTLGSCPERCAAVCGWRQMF
Description: as §1

[5] = target: T5, recombinant human LTBR-Fc (Acros Biosystems, LTR-H5251) (human, UniProt P36941 28-227, limits assumed); assay: as above
T5 construct: Bought construct; not shown: Fc part
Description: as §1

[6] = target: T6, recombinant human BAFFR-Fc (R&D, 1162-BR) (human, UniProt Q96RJ3 7-71, limits assumed); assay: as above
T6 construct: Bought construct; not shown: Fc part
Description: as §1

[7] = target: T7, recombinant human DR6-Fc (SinoBiological, 10175-H02H) (human, UniProt O75509 42-349); assay: as above
T7 construct: Bought construct; not shown: Fc part
T7 sequence (looked up): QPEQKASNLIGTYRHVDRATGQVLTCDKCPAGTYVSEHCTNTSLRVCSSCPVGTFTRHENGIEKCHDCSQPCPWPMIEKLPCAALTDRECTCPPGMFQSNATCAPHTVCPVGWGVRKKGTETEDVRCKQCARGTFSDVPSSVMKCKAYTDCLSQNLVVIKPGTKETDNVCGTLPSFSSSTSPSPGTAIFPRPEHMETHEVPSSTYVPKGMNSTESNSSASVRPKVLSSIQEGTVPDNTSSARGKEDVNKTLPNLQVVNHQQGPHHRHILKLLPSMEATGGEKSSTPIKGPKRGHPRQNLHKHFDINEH
Description: as §1

[8] = target: T8, recombinant human GITR-His (SinoBiological, 13643-H08H) (human, UniProt Q9Y5U5 26-161); assay: as above
T8 construct: Bought construct; not shown: His tag
T8 sequence (looked up): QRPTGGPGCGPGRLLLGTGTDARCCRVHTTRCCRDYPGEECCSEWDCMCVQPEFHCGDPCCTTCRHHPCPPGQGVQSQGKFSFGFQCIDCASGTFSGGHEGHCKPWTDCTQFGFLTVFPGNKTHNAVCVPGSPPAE
Description: as §1

[9] = target: T9, human OX40 expressed on cells (human, UniProt P43489 29-277); assay: flow cytometry, 10-point titration 0.5-10,000 ng/ml, APC anti-human kappa detection
T9 construct: It was expressed ectopically on Jurkat cells or induced on Hut102 cells and primary T cells; also called huOX40; Jurkat-huOX40
T9 sequence: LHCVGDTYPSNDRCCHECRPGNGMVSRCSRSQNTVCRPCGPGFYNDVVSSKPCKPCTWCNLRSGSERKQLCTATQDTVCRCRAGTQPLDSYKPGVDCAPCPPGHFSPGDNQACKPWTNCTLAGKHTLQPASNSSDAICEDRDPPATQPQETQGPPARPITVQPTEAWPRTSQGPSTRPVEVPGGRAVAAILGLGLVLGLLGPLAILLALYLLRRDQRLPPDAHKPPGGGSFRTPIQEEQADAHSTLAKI
Description: Stable clones were generated via single-cell sorting (FACS ARIA Fusion). […] Samples were then washed two times and analyzed using the LSRFortessa flow cytometer (BD Biosciences). FACS plots were analyzed using a combination of FACS DIVA and WEHI Weasel software. Data were plotted with Graphpad Prism software.

[10] = target: T10, recombinant human OX40-His (SinoBiological, 10481-H08H) (human, UniProt P43489 29-216); assay: Luminex suspension array, protein coupled to microspheres, PE MFI; antibody at 10, 100 and 1000 ng/ml
T10 construct: not shown: His tag
T10 sequence: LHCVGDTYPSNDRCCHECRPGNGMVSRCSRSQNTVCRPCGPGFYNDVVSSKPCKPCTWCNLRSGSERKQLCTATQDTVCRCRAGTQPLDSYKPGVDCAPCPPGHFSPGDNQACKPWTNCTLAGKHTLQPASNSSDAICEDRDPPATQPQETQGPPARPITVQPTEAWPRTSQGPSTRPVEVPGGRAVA
Description: as §1, with “Detection was carried out using 60 μl of goat anti-human IgG F(ab)₂ labeled with R-PE (2.5 μg/ml; JIR 109-116-098, AbDSerotec Rapid RPE Antibody Conjugation Kit, LNK022RPE) and another hour of incubation time (20° C., 650 rpm).” left out, “PE MFI values were used to determine specific or non-specific binding to the recombinant proteins mentioned above.” left out

[11] = target: T11, recombinant human OX40-Fc (R&D systems, 3388-OX) (human, UniProt P43489 29-216); assay: as above
T11 construct: not shown: Fc part
T11 sequence: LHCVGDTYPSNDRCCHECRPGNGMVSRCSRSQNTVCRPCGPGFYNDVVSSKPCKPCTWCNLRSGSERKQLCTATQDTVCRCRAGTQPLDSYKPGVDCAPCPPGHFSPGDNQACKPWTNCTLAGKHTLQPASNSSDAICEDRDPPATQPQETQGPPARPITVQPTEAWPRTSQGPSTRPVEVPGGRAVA
Description: as §1, with “Detection was carried out using 60 μl of goat anti-human IgG F(ab)₂ labeled with R-PE (2.5 μg/ml; JIR 109-116-098, AbDSerotec Rapid RPE Antibody Conjugation Kit, LNK022RPE) and another hour of incubation time (20° C., 650 rpm).” left out, “PE MFI values were used to determine specific or non-specific binding to the recombinant proteins mentioned above.” left out

T5 sequence (P36941 28-227 limits assumed): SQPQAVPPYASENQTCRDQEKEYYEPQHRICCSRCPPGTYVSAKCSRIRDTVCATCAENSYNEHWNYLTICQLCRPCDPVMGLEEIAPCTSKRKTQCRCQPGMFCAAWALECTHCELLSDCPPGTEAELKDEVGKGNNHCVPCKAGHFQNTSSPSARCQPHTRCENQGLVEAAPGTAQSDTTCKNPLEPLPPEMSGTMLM
T3 sequence (Q07011 24-186 limits assumed): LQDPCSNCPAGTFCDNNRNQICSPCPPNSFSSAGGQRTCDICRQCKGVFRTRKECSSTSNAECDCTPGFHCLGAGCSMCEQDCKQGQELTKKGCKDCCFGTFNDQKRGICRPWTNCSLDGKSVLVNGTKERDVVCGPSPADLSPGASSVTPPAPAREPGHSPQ
T6 sequence (Q96RJ3 7-71 limits assumed): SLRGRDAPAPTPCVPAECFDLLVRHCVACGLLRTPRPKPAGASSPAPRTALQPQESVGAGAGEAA

B1: pab2049 (IgG1) (antibody, V domains shown)
VH: EVQLVESGGGLVQPGGSLKLSCAASGFTFSGSAMHWVRQASGKGLEWVGRIRSKANSYATAYAASVKGRFTISRDDSKNTAYLQMNSLKTEDTAVYYCTSGIYDSSGYDYWGQGTLVTVSS
VL: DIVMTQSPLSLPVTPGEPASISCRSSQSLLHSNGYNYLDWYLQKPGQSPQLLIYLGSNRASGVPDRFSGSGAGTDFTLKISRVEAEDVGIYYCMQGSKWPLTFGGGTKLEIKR
notes: Human IgG1; also called anti-OX40 antibody pab2049 (IgG1)
Does B1 bind [1]?
Result: no binding (tested: 10 ng/ml, 100 ng/ml and 1000 ng/ml)

Does B1 bind [2]?
Result: no binding (tested: 10 ng/ml, 100 ng/ml and 1000 ng/ml)

Does B1 bind [3]?
Result: no binding (tested: 10 ng/ml, 100 ng/ml and 1000 ng/ml)

Does B1 bind [4]?
Result: no binding (tested: 10 ng/ml, 100 ng/ml and 1000 ng/ml)

Does B1 bind [5]?
Result: no binding (tested: 10 ng/ml, 100 ng/ml and 1000 ng/ml)

Does B1 bind [6]?
Result: no binding (tested: 10 ng/ml, 100 ng/ml and 1000 ng/ml)

Does B1 bind [7]?
Result: no binding (tested: 10 ng/ml, 100 ng/ml and 1000 ng/ml)

Does B1 bind [8]?
Result: no binding (tested: 10 ng/ml, 100 ng/ml and 1000 ng/ml)

Does B1 bind [9]?
Result: binds

Does B1 bind [10]?
Result: binds

Does B1 bind [11]?
Result: binds
